Source: US20120220489A1

Columns and labels:
[1] = target: ERK1 (p42) active (phospho), human, Active Motif 31 152 (human) (UniProt P27361); assay: RPA, competition: +recombinant protein 100 nM (not named)
[2] = target: ERK2 (p42), human, Biosource PHO 0104 (human) (UniProt P28482); assay: as above
[3] = target: ERK1 (p44), human, Cell Signaling Technology 7416 (human) (UniProt P27361); assay: as above
[4] = target: Histone H3 recombinant protein, human, Upstate 14-494 (human) (UniProt P68431); assay: as above
[5] = target: Histone H3-BSA 2.7x peptide-protein conjugate (bovine); assay: as above
Sequence of Histone H3-BSA 2.7x peptide-protein conjugate (bovine) (P02769 25-607 limits assumed): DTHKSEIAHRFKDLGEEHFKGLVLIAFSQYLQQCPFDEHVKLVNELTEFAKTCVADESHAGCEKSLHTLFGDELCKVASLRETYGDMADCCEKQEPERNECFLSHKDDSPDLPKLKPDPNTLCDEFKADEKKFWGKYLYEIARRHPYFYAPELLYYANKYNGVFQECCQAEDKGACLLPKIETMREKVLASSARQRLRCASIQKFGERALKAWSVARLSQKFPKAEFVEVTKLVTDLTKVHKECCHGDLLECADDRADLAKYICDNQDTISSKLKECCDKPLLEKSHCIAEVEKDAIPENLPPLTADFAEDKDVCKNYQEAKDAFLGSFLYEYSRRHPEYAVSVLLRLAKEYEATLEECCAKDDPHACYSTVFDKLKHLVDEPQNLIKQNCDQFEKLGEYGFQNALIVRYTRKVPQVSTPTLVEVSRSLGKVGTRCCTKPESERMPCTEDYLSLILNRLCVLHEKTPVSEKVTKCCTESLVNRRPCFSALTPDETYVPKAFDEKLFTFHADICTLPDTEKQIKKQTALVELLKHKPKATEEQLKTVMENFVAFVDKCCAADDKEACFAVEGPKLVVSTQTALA

[6] = target: ERK1 (p44) active (GST tagged), human, Invitrogen PV 3311 (human) (UniProt P27361); assay: as above
[7] = target: pRb-BSA 1x peptide-protein conjugate (bovine); assay: as above
Sequence of pRb-BSA 1x peptide-protein conjugate (bovine) (P02769 25-607 limits assumed): as above

[8] = target: pRb recombinant protein, human, Active Motif 31 128 (human) (UniProt P06400); assay: as above
Sequence of UniProt P06400 (P06400 whole entry): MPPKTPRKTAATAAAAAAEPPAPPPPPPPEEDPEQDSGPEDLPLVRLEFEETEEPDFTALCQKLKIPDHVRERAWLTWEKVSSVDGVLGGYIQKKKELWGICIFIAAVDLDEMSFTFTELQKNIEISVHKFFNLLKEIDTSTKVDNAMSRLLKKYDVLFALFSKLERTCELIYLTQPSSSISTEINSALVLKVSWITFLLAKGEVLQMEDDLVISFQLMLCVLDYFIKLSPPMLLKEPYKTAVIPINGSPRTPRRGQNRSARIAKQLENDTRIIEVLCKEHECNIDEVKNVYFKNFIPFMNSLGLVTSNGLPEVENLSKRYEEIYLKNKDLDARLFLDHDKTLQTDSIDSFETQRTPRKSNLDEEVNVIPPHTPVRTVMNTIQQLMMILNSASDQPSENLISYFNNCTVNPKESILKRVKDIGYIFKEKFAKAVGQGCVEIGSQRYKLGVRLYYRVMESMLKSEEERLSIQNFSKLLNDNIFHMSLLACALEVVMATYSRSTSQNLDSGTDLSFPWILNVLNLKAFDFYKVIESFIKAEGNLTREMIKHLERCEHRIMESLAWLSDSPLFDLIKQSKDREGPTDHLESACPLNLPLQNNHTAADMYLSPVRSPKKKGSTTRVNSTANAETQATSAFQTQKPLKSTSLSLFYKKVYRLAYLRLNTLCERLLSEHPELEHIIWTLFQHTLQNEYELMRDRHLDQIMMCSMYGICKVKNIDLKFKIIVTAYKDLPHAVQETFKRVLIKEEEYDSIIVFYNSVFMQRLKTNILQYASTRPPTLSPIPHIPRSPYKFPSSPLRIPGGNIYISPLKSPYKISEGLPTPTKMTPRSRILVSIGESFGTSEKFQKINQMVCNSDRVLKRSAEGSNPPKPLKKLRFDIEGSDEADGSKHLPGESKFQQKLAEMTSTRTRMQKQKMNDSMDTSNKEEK

[9] = target: pErk1/2-BSA 2.7x peptide-protein conjugate (human; bovine); assay: as above
Sequence of pErk1/2-BSA 2.7x peptide-protein conjugate (human; bovine) (P02769 25-607 limits assumed): as the sequence (P02769 25-607 limits assumed) above

[10] = target: Histone H3 recombinant protein, calf, Roche 11 034 758 001 (calf) (UniProt P68432); assay: as above
[11] = target: Erk1-BSA 2.7x peptide-protein conjugate (human; bovine); assay: as above
Sequence of Erk1-BSA 2.7x peptide-protein conjugate (human; bovine) (peptide, as listed by the source limits assumed, chain 1 of 2): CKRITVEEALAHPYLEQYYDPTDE
Sequence of Erk1-BSA 2.7x peptide-protein conjugate (human; bovine) (P02769 25-607 limits assumed, chain 2 of 2): as the sequence (P02769 25-607 limits assumed) above

[12] = target: ERK1 (p44) inactive (GST tagged), human, Invitrogen PV 3312 (human) (UniProt P27361); assay: as above
[13] = target: Histone H3 recombinant protein, human, Upstate 14-494 (human) (UniProt P68431); assay: RPA, normal assay
[14] = target: Histone H3-BSA 2.7x peptide-protein conjugate (bovine); assay: RPA, normal assay
[15] = target: Histone H3 recombinant protein, calf, Roche 11 034 758 001 (calf) (UniProt P68432); assay: RPA, normal assay
[16] = target: Erk1-BSA 2.7x peptide-protein conjugate (human; bovine); assay: RPA, normal assay
[17] = target: ERK1 (p44) inactive (GST tagged), human, Invitrogen PV 3312 (human) (UniProt P27361); assay: RPA, normal assay
[18] = target: ERK1 (p42) active (phospho), human, Active Motif 31 152 (human) (UniProt P27361); assay: RPA, competition: +recombinant protein 10 nM (not named)
[19] = target: ERK2 (p42), human, Biosource PHO 0104 (human) (UniProt P28482); assay: as above
[20] = target: ERK1 (p44), human, Cell Signaling Technology 7416 (human) (UniProt P27361); assay: as above
[21] = target: Histone H3 recombinant protein, human, Upstate 14-494 (human) (UniProt P68431); assay: as above
[22] = target: Histone H3-BSA 2.7x peptide-protein conjugate (bovine); assay: as above
[23] = target: ERK1 (p44) active (GST tagged), human, Invitrogen PV 3311 (human) (UniProt P27361); assay: as above
[24] = target: pRb-BSA 1x peptide-protein conjugate (bovine); assay: as above
[25] = target: pRb recombinant protein, human, Active Motif 31 128 (human) (UniProt P06400); assay: as above
[26] = target: pErk1/2-BSA 2.7x peptide-protein conjugate (human; bovine); assay: as above
[27] = target: Histone H3 recombinant protein, calf, Roche 11 034 758 001 (calf) (UniProt P68432); assay: as above
[28] = target: Erk1-BSA 2.7x peptide-protein conjugate (human; bovine); assay: as above
[29] = target: ERK1 (p44) inactive (GST tagged), human, Invitrogen PV 3312 (human) (UniProt P27361); assay: as above
[30] = target: ERK1 (p44) active (GST tagged), human, Invitrogen PV 3311 (human) (UniProt P27361); assay: RPA standard curve, assay 1, LOD back-calculated from one-site fit
[31] = target: ERK1 (p42) active (phospho), human, Active Motif 31 152 (human) (UniProt P27361); assay: RPA, normal assay
[32] = target: ERK2 (p42), human, Biosource PHO 0104 (human) (UniProt P28482); assay: RPA, normal assay
[33] = target: ERK1 (p44), human, Cell Signaling Technology 7416 (human) (UniProt P27361); assay: RPA, normal assay
[34] = target: ERK1 (p44) active (GST tagged), human, Invitrogen PV 3311 (human) (UniProt P27361); assay: RPA, normal assay
[35] = target: pRb-BSA 1x peptide-protein conjugate (bovine); assay: RPA, normal assay
[36] = target: pRb recombinant protein, human, Active Motif 31 128 (human) (UniProt P06400); assay: RPA, normal assay
[37] = target: ERK1 (p44) active (GST tagged), human, Invitrogen PV 3311 (human) (UniProt P27361); assay: RPA standard curve, assay 2, LOD back-calculated from one-site fit
[38] = target: ERK1 (p44) active (GST tagged), human, Invitrogen PV 3311 (human) (UniProt P27361); assay: RPA standard curves, mean of duplicate assays

Sequence of UniProt P28482 (P28482 2-360 limits assumed): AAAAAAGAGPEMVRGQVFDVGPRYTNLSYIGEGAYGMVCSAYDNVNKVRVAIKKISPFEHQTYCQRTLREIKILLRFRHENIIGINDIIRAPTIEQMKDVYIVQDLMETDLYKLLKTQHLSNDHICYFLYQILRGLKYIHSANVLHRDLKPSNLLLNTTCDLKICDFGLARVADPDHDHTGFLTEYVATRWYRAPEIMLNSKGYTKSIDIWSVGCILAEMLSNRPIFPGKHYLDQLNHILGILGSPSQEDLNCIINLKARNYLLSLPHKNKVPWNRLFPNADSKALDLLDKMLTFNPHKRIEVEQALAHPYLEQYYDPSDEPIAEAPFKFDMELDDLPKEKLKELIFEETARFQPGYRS

Substance | maximum standard curve signal [1] | maximum standard curve signal [2] | maximum standard curve signal [3] | maximum standard curve signal [4] | maximum standard curve signal [5] | maximum standard curve signal [6] | maximum standard curve signal [7] | maximum standard curve signal [8] | maximum standard curve signal [9] | maximum standard curve signal [10] | maximum standard curve signal [11] | maximum standard curve signal [12] | maximum standard curve signal [13] | maximum standard curve signal [14] | maximum standard curve signal [15] | maximum standard curve signal [16] | maximum standard curve signal [17] | maximum standard curve signal [18] | maximum standard curve signal [19] | maximum standard curve signal [20] | also measured
Histone H3 antibody, Abcam ab1791 | 1.87 RFI | 1.56 RFI | 1.8 RFI | 2.09 RFI | 1.68 RFI | 1.37 RFI | 2.46 RFI | 2.28 RFI | 1.81 RFI | 2.56 RFI | 1.42 RFI | 1.32 RFI | 11.2 RFI | 5.38 RFI | 0.43 RFI | 0.01 RFI | 0.02 RFI | 2.4 RFI | 2.3 RFI | 2.19 RFI | maximum standard curve signal [21]: 3.16 RFI; maximum standard curve signal [22]: 3.93 RFI; maximum standard curve signal [23]: 2.2 RFI; maximum standard curve signal [24]: 2.57 RFI; maximum standard curve signal [25]: 2.77 RFI; maximum standard curve signal [26]: 2.57 RFI; maximum standard curve signal [27]: 2.5 RFI; maximum standard curve signal [28]: 2.8 RFI; maximum standard curve signal [29]: 2.54 RFI
p44/42 MAPK (Erk1/2) antibody, Biosource 44-654G | 0.15 RFI | 0.18 RFI | 0.16 RFI | 0.16 RFI | 0.22 RFI | 0.32 RFI | 0.16 RFI | 0.17 RFI | 0.14 RFI | 0.15 RFI | 5.69 RFI | 0.38 RFI | – | 0.04 RFI | 0.02 RFI | 8.24 RFI | 10.9 RFI | 0.31 RFI | 0.9 RFI | 0.15 RFI | LOD [30]: 0.04 nM; maximum standard curve signal [31]: 1.17 RFI; maximum standard curve signal [32]: 3.57 RFI; maximum standard curve signal [33]: 0.28 RFI; maximum standard curve signal [34]: 10.4 RFI; maximum standard curve signal [35]: 0.03 RFI; maximum standard curve signal [36]: 0.02 RFI; maximum standard curve signal [21]: 0.09 RFI; maximum standard curve signal [22]: 0.13 RFI; maximum standard curve signal [23]: 3.88 RFI; maximum standard curve signal [24]: 0.1 RFI; maximum standard curve signal [25]: 0.11 RFI; maximum standard curve signal [26]: 0.08 RFI; maximum standard curve signal [27]: 0.07 RFI; maximum standard curve signal [28]: 7.88 RFI; maximum standard curve signal [29]: 5.17 RFI; LOD [37]: 0.047 nM; mean LOD [38]: 0.044 nM
p44/42 MAPK phospho (pERK1/2) Thr202/Tyr204 antibody, Cell Signaling Technology #9101 | – | – | – | – | – | – | – | – | – | – | – | – | 0.01 RFI | 0.11 RFI | 0.01 RFI | 0.02 RFI | 0.23 RFI | – | – | – | LOD [30]: 0.058 nM; maximum standard curve signal [31]: 0.19 RFI; maximum standard curve signal [32]: 0.01 RFI; maximum standard curve signal [33]: 0.04 RFI; maximum standard curve signal [34]: 1.66 RFI; maximum standard curve signal [35]: 0.01 RFI; maximum standard curve signal [36]: 0.01 RFI; LOD [37]: 0.052 nM; mean LOD [38]: 0.055 nM
